Results as given in the Immune Epitope Database (IEDB).

Tests used:
HLA-B*18:01 = experiment: IEDB peptide-MHC binding, purified MHC/competitive/radioactivity; filed as Kd, often an IC50 or EC50 that approximates it; ≥ and ≤ were set here for values at or beyond the usual limits of such assays; settings: source organism: Mammarenavirus tacaribeense
HLA-B*40:01 = experiment: as above; settings: source organism: Mammarenavirus tacaribeense
HLA-B*40:02 = experiment: as above; settings: source organism: Mammarenavirus tacaribeense
HLA-B*44:02 = experiment: as above; settings: source organism: Mammarenavirus tacaribeense
HLA-B*44:03 = experiment: as above; settings: source organism: Mammarenavirus tacaribeense
HLA-B*45:01 = experiment: as above; settings: source organism: Mammarenavirus tacaribeense
HLA-A*03:01 [1] = experiment: IEDB peptide-MHC binding, purified MHC/competitive/fluorescence; filed as Kd, often an IC50 or EC50 that approximates it; ≥ and ≤ were set here for values at or beyond the usual limits of such assays
HLA-A*31:01 = experiment: as above
HLA-B*15:03 = experiment: IEDB peptide-MHC binding, purified MHC/competitive/radioactivity; filed as Kd, often an IC50 or EC50 that approximates it; ≥ and ≤ were set here for values at or beyond the usual limits of such assays
HLA-A*11:01 [2] = experiment: IEDB peptide-MHC binding, purified MHC/direct/fluorescence; filed as Kd, often an IC50 or EC50 that approximates it; ≥ and ≤ were set here for values at or beyond the usual limits of such assays
HLA-A*68:01 = experiment: IEDB peptide-MHC binding, purified MHC/competitive/radioactivity; filed as Kd, often an IC50 or EC50 that approximates it; ≥ and ≤ were set here for values at or beyond the usual limits of such assays; settings: source organism: Dengue virus 2 Jamaica/1409/1983
HLA-A*30:01 = experiment: as above; settings: source organism: Vaccinia virus WR
HLA-A*32:01 = experiment: as above; settings: source organism: Vaccinia virus WR
HLA-B*08:01 = experiment: as above; settings: source organism: Vaccinia virus WR
HLA-B*15:01 = experiment: as above; settings: source organism: Vaccinia virus WR
HLA-A*02:12 = experiment: IEDB peptide-MHC binding, purified MHC/direct/fluorescence; filed as Kd, often an IC50 or EC50 that approximates it; ≥ and ≤ were set here for values at or beyond the usual limits of such assays; settings: source organism: Bacillus cereus 03BB108
HLA-A*03:01 [3] = experiment: as above
HLA-A*02:02 = experiment: IEDB peptide-MHC binding, purified MHC/competitive/radioactivity; filed as Kd, often an IC50 or EC50 that approximates it; ≥ and ≤ were set here for values at or beyond the usual limits of such assays; settings: source organism: Vaccinia virus WR
HLA-A*02:03 = experiment: as above; settings: source organism: Vaccinia virus WR
HLA-A*02:06 = experiment: as above; settings: source organism: Vaccinia virus WR
HLA-B*07:02 = experiment: as above
HLA-B*35:01 = experiment: as above
HLA-B*51:01 = experiment: as above
HLA-B*53:01 = experiment: as above
HLA-B*54:01 = experiment: as above
HLA-A*11:01 [4] = experiment: IEDB peptide-MHC binding, purified MHC/competitive/fluorescence; ≥ and ≤ were set here for values at or beyond the usual limits of such assays; settings: source organism: West Nile virus
HLA-A*02:01 = experiment: IEDB peptide-MHC binding, purified MHC/competitive/radioactivity; filed as Kd, often an IC50 or EC50 that approximates it; ≥ and ≤ were set here for values at or beyond the usual limits of such assays
[5] = source organism: Desulfitobacterium hafniense DCB-2
[6] = source organism: Vaccinia virus WR
[7] = source organism: Yellow fever virus 1899/81
[8] = source organism: Bacillus anthracis str. Tsiankovskii-I
[9] = source organism: Vibrio vulnificus
[10] = source organism: SARS coronavirus Tor2
[11] = source organism: West Nile virus

AEFKSRFFVM
Kd (HLA-B*18:01): 37.2 nM
Kd (HLA-B*40:01): 41.6 nM
Kd (HLA-B*40:02): 3.57 nM
Kd (HLA-B*44:02): 192 nM
Kd (HLA-B*44:03): 87.2 nM
Kd (HLA-B*45:01): 290 nM

ALFAGDLYR
Kd (HLA-A*03:01 [1]; [5]): 12.9 nM
Kd (HLA-A*31:01; [5]): 3.9 nM

AMKVDANYF
Kd (HLA-B*15:03; [6]): 0.149 nM

ANVNARNRF
Kd (HLA-B*15:03; [6]): 552 nM

AVSMANIFR
Kd (HLA-A*11:01 [2]; source organism: Dengue virus 1 Singapore/S275/1990): 8.9 nM
Kd (HLA-A*31:01; source organism: dengue virus type 1): 1.37 nM
Kd (HLA-A*68:01): 55.4 nM

ELRDYFEQI
Kd (HLA-A*30:01): ≥ 38000 nM
Kd (HLA-A*32:01): ≥ 77800 nM
Kd (HLA-B*08:01): 12.5 nM
Kd (HLA-B*15:01): 2190 nM
Kd (HLA-B*15:03; [6]): 80.2 nM

FSVSFSPSL
Kd (HLA-B*15:03; source organism: Vaccinia virus Copenhagen): 21.7 nM

GMFDWESMK
Kd (HLA-A*02:12): 744 nM
Kd (HLA-A*03:01 [3]; source organism: Bacillus mycoides): 208 nM

GTHPFSRIR
Kd (HLA-A*11:01 [2]; [7]): 326 nM
Kd (HLA-A*31:01; [7]): 6 nM

IISYFIFNR
Kd (HLA-A*03:01 [1]; [8]): 304 nM
Kd (HLA-A*31:01; [8]): 22.5 nM

ILFYFANGI
Kd (HLA-A*32:01): 92.5 nM
Kd (HLA-B*15:03; [6]): 139 nM

IMFAKTLDF
Kd (HLA-A*32:01): 6.82 nM
Kd (HLA-B*15:03; [6]): 0.311 nM

IMRNFLRSI
Kd (HLA-A*02:02): 485 nM
Kd (HLA-A*02:03): 0.398 nM
Kd (HLA-A*02:06): 3920 nM
Kd (HLA-B*15:03; [6]): 106 nM

IPIGMQFDKV
Kd (HLA-B*07:02; [6]): 4910 nM
Kd (HLA-B*35:01; [6]): 5280 nM
Kd (HLA-B*51:01; [6]): 394 nM
Kd (HLA-B*53:01; [6]): 590 nM
Kd (HLA-B*54:01; [6]): 40.4 nM

IPSTVKTNLY
Kd (HLA-B*07:02; [6]): ≥ 25600 nM
Kd (HLA-B*35:01; [6]): 248 nM
Kd (HLA-B*51:01; [6]): ≥ 69600 nM
Kd (HLA-B*53:01; [6]): 213 nM
Kd (HLA-B*54:01; [6]): 10300 nM

KGNVSALVK
Kd (HLA-A*03:01 [3]; [9]): 1160 nM
Kd (HLA-A*11:01 [2]; [9]): 184 nM
Kd (HLA-A*31:01; source organism: Vibrio vulnificus YJ016): ≥ 20000 nM

KPIMSMGDII
Kd (HLA-B*07:02; [6]): 6.49 nM
Kd (HLA-B*35:01; [6]): 622 nM
Kd (HLA-B*51:01; [6]): 425 nM
Kd (HLA-B*53:01; [6]): 90.7 nM
Kd (HLA-B*54:01; [6]): 1980 nM

KPTTFMLKY
Kd (HLA-B*07:02; [10]): 11400 nM
Kd (HLA-B*35:01; [10]): 41.3 nM
Kd (HLA-B*51:01; [10]): 13000 nM
Kd (HLA-B*53:01; [10]): 24.7 nM
Kd (HLA-B*54:01; [10]): 5220 nM

KSYETEYPK
IC50 (HLA-A*11:01 [4]): 7880 nM
Kd (HLA-A*03:01 [3]; [11]): 728 nM
Kd (HLA-A*11:01 [2]; [11]): 7.7 nM
Kd (HLA-A*31:01; [11]): 126 nM

KTHESHLVR
Kd (HLA-A*11:01 [2]; source organism: Yellow fever virus 17D): 35.6 nM
Kd (HLA-A*31:01; source organism: Yellow fever virus): 21.2 nM

LLTTPKFTV
Kd (HLA-A*02:01; source organism: Human alphaherpesvirus 1 strain 17): 500 nM

LMWITQCFL
Kd (HLA-A*02:01; source organism: Homo sapiens): 78 nM

LPEETNIGCA
Kd (HLA-B*07:02; [6]): ≥ 20700 nM
Kd (HLA-B*35:01; [6]): 8680 nM
Kd (HLA-B*51:01; [6]): ≥ 69600 nM
Kd (HLA-B*53:01; [6]): 2080 nM
Kd (HLA-B*54:01; [6]): 243 nM

LSISCPNSL
Kd (HLA-B*15:03; [6]): 256 nM

MKITRPRHF
Kd (HLA-B*15:03; [6]): 1.04 nM
